Patent publication US20050048512A1 (published 2005)
Several values for one entry are separate records, joined by “and”; a condition that tells them apart may be missing. Equal values may be shown once.

T1: CD20 on Raji or Daudi cells (UniProt P11836 1-297, limits assumed)
T1 construct: whole, on cells
T1 sequence (looked up): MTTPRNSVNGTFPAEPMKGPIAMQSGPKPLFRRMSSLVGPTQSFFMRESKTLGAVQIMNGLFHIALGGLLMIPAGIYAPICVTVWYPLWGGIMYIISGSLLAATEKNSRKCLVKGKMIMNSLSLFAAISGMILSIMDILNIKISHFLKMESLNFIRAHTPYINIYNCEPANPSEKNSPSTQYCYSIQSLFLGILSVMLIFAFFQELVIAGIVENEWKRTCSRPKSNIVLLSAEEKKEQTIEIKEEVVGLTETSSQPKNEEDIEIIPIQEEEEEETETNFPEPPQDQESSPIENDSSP


Key:
[1] = target: T2, CD28 (UniProt P10747 19-152, limits assumed); test: ELISA, 10 ng CD28 per well, serial dilutions of protein, anti-HA-HRP detection
T2 construct: Purified CD28 immobilized by NHS/EDC coupling (Biacore) or hydrophobic adsorption (ELISA); also called target protein CD28

[2] = target: T2, CD28; test: Biacore, CD28 on CM5 chip, 0.5 and 5 uM protein in flow
[3] = target: CD28 on monkey PBMC (monkey (cynomolgus), UniProt Q0PDN3 19-220); test: cell-based or functional assay
[4] = target: CD28 on human PBMC (human, UniProt P10747 19-220); test: cell-based or functional assay
[5] = target: T1, CD20 on Raji or Daudi cells; test: phage clone on Raji or Daudi cells with or without 1 mg/mL Rituxan

Row | Binder | ELISA (column head; quantity not named) [1] | Kd [2] | IC50, PBMC assay on monkey cells (3H thymidine incorporation) [3] | IC50, PBMC assay on human cells (3H thymidine incorporation) [4] | binding result [5]
1 | CD28-A10 (designed binder, LDL receptor A-domain trimer; also called CD28 10; CD28 trimer clone 10) CGPGRFQCESGQCVPATWVCDGDDDCADGSDEKSCATTAPTCESNQFQCGSGQCLPGTWRCDGVNDCADSSDETGCGRPGPGATSAPAACGPGRFQCNNGNCVPQTLGCDGDNDCGDSSDEANCSAPASEPPGSL | 1.7e-10 | 29 nM | 7 nM | 3 nM and 40 ng/ml | 
2 | CLPERFQCAVPGYCIPLPGVCDGVNDCQEDSDEPNCRAPGLR (designed binder) [CD20 binding sequence 8] |  |  |  |  | binds
3 | CRRNEFRCKSGHCVPQPLVCDGVRDCEDNSDEPSCGRPGPGATSAPAA (designed binder) [CD20 binding sequence 9] |  |  |  |  | binds
